Test results from patent US20200216532A1 (Ablynx, published 2020).
Changes are numbered by the printed parent chain. Names and notes keep the numbering of the source.

B1: SEQ ID NO: 45 (VHH)
VHH: EVQLVESGGGLVQAGGSLRLSCAASRSIGRLDRMGWYRHRTGEPRELVATITGGSSINYGDFVKGRFTISIDNAKNTVYLQMNNLKPEDTAVYYCNFNKYVTSRDTWGQGTQVTVSS
notes: Ex. 8; no addition
B2: SEQ ID NO: 75 (VHH)
VHH: B1 VHH with A14P, T41P, F62S, A74S, N84S, K86R, Q112L
notes: Ex. 8
B3: SEQ ID NO: 76 (VHH)
VHH: B1 VHH with A14P, T41P, F62S, A74S, N84S, K86R, Q112L
notes: Ex. 8
B4: SEQ ID NO: 79 (VHH)
VHH: B1 VHH with A14P, T41P, F62S, A74S, N84S, K86R, Q112L
notes: Ex. 8
B5: SEQ ID NO: 74 (VHH)
VHH: B1 VHH with A14P, T41P, F62S, A74S, N84S, K86R, Q112L
notes: Ex. 8
B6: SEQ ID NO: 71 (VHH)
VHH: B1 VHH with A14P, T41P, F62S, A74S, N84S, K86R, Q112L, S117G
notes: Ex. 8
B7: SEQ ID NO: 73 (VHH)
VHH: B1 VHH with A14P, T41P, F62S, A74S, N84S, K86R, Q112L, S116G, S117G
notes: Ex. 8; S112G, S113G
B8: SEQ ID NO: 66 (VHH)
VHH: B1 VHH with L11S, A14P, T41P, F62S, A74S, N84S, K86R, Q112L
notes: Ex. 8
B9: SEQ ID NO: 70 (VHH)
VHH: B1 VHH with A14P, T41P, F62S, A74S, N84S, K86R, Q112L, T114Q
notes: Ex. 8
B10: SEQ ID NO: 77 (VHH)
VHH: B1 VHH with A14P, T41P, F62S, A74S, N84S, K86R, Q112L
notes: Ex. 8
B11: SEQ ID NO: 82 (VHH)
VHH: B1 VHH with A14P, T41P, F62S, A74S, N84S, K86R, P87A, Q112L
notes: Ex. 8
B12: SEQ ID NO: 85 (VHH)
VHH: EVQLVESGGGSVQPGGSLRLSCAASRSIGRLDRMGWYRHRPGEPRELVATITGGSSINYGDSVKGRFTISIDNSKNTVYLQMNSLRPEDTAVYYCNFNKYVTSRDTWGQGTLVQVGG
notes: Ex. 8
B13: SEQ ID NO: 67 (VHH)
VHH: B12 VHH with S11L, R86K, Q114T, G116S, G117S
notes: Ex. 8
B14: SEQ ID NO: 78 (VHH)
VHH: B12 VHH with S11L, Q13R, Q114T, G116S, G117S
notes: Ex. 8
B15: SEQ ID NO: 88 (VHH)
VHH: B12 VHH with G116S, G117S
notes: Ex. 8; L11S, T110Q
B16: SEQ ID NO: 83 (VHH)
VHH: B12 VHH with S11L, T90A, Q114T, G116S, G117S
notes: Ex. 8
B17: SEQ ID NO: 87 (VHH)
VHH: B12 VHH with Q114T
notes: Ex. 8
B18: SEQ ID NO: 69 (VHH)
VHH: B12 VHH with S11L, L112Q, Q114T, G116S, G117S
notes: Ex. 8
B19: SEQ ID NO: 68 (VHH)
VHH: B1 VHH with T41P, F62S, A74S, N84S, K86R
notes: Ex. 8
B20: SEQ ID NO: 72 (VHH)
VHH: B12 VHH with S11L, Q114T
notes: Ex. 8
B21: SEQ ID NO: 81 (VHH)
VHH: B12 VHH with S11V, Q114T, G116S, G117S
notes: Ex. 8
B22: SEQ ID NO: 89 (VHH)
VHH: B12 VHH with P14A
notes: Ex. 8
B23: SEQ ID NO: 86 (VHH)
VHH: B12 VHH with G116S, G117S
notes: Ex. 8
B24: SEQ ID NO: 84 (VHH)
VHH: B12 VHH with S11L, Q114T, G117S
notes: Ex. 8
B25: SEQ ID NO: 65 (VHH)
VHH: B12 VHH with S11L, P14A, Q114T, G116S, G117S
notes: Ex. 8
B26: SEQ ID NO: 80 (VHH)
VHH: B12 VHH with S11L
notes: Ex. 8
B27: SEQ ID NO: 48 (VHH)
VHH: EVQLVESGGGLVQPGGSLRLSCIASGLPFSTKSMGWFRQAPGKEREFVARISPGGTSRYYGDFVKGRFAISRDNAKNTTWLQMNSLKAEDTAVYYCASGERSTYIGSNYYRTNEYDYWGTGTQVTVSS
notes: Ex. 8
B28: SEQ ID NO: 49 (VHH)
VHH: EVQLLESGGGLVQPGGSLRLSCAASGLPFSTKSMGWFRQAPGKGREFVSRISPGGTSRYYGDFVKGRFTISRDNSKNTLYLQMNSLRAEDTAVYYCASGERSTYIGSNYYRTNEYDYWGQGTLVTVSS
notes: Ex. 8; V5L, I23A, E44G, A49S, A68T, A74S, T78L, W79Y, K83R, T110Q, Q108L
B29: SEQ ID NO: 43 (VHH)
chain: DVQLVESGGGLVQPGGSLRLSCAASGFILDYYAIGWFRQAPGKEREGVLCIDASDDITYYADSVKGRFTISRDNSKNTVYLQMNSLRPEDTAVYYCATPIGLSSSCLLEYDYDYWGQGTLVTVSSGGGGSGGGSEVQLLESGGGLVQPGGSLRLSCAASGFTFRSFGMSWVRQAPGKGPEWVSSISGSGSDTLYADSVKGRFTISRDNSKNTLYLQMNSLRPEDTAVYYCTIGGSLSRSSQGTLVTVSSA
notes: Ex. 8
B30: SEQ ID NO: 47 (VHH)
VHH: EVQLVESGGGLVQPGGSLRLSCAASGSVFKINVMAWYRQAPGKGRELVAGIISGGSTSYADSVKGRFTISRDNAKNTLYLQMNSLRPEDTAVYYCAFITTESDYDLGRRYWGQGTLVTVSS
notes: Ex. 8
B31: SEQ ID NO: 42 (VHH)
chain: EVQLVESGGGLVQPGGSLRLSCAASGRTFSYNPMGWFRQAPGKGRELVAAISRTGGSTYYPDSVEGRFTISRDNAKRMVYLQMNSLRAEDTAVYYCAAAGVRAEDGRVRTLPSEYTFWGQGTQVTVSSAAAEVQLVESGGGLVQPGGSLRLSCAASGRTFSYNPMGWFRQAPGKGRELVAAISRTGGSTYYPDSVEGRFTISRDNAKRMVYLQMNSLRAEDTAVYYCAAAGVRAEDGRVRTLPSEYTFWGQGTQVTVSSA
notes: Ex. 8
B32: SEQ ID NO: 38 (VHH)
chain: EVQLVESGGGLVQPGGSLRLSCAASGFTFSSYAMSWVRQAPGKGLEWVSGIKSSGDSTRYAGSVKGRFTISRDNAKNTLYLQMNSLRPEDTAVYYCAKSRVSRTGLYTYDNRGQGTLVTVSSGGGGSGGGGSGGGGSGGGGSEVQLVESGGGLVQPGGSLRLSCAASGRTFNNYAMGWFRQAPGKEREFVAAITRSGVRSGVSAIYGDSVKDRFTISRDNAKNTLYLQMNSLRPEDTAVYYCAASAIGSGALRRFEYDYSGQGTLVTVSSA
notes: Ex. 8

target: T1, purified interference factor(s), Donor A; test: SPR, interference factor immobilized
T1 construct: also called interference in serum from Donor A

| Binder | % of binding of reference (=100%) |
| --- | --- |
| B1 | 0% |
| B2 | 1% |
| B3 | 2% |
| B4 | 1% |
| B5 | 4% |
| B6 | 88% |
| B7 | 6% |
| B8 | 81% |
| B9 | 90% |
| B10 | 2% |
| B11 | 96% |
| B12 | 46% |
| B13 | 102% |
| B14 | 96% |
| B15 | 1% |
| B16 | 56% |

| Binder | % of binding of reference (=100%) |
| --- | --- |
| B17 | 51% |
| B18 | 80% |
| B19 | 38% |
| B20 | 70% |
| B21 | 94% |
| B22 | 14% |
| B23 | 76% |
| B24 | 84% |
| B25 | 73% |
| B26 | 65% |
| B27 | 0% |
| B28 | 0% |
| B29 | 3% |
| B30 | 1% |
| B31 | 1% |
| B32 | 9% |

target: T2, purified interference factor(s), Donor B; test: SPR, interference factor immobilized
T2 construct: also called interference in serum from Donor B

| Binder | % of binding of reference (=100%) |
| --- | --- |
| B2 | 11% |
| B3 | 17% |
| B4 | 17% |
| B5 | 41% |
| B6 | 105% |
| B7 | 8% |
| B8 | 29% |
| B9 | 105% |
| B10 | 12% |
| B11 | 80% |
| B12 | 5% |
| B13 | 117% |
| B14 | 96% |
| B15 | 5% |
| B16 | 73% |
| B17 | 5% |
| B18 | 120% |
| B19 | 115% |
| B20 | 47% |
| B21 | 50% |
| B22 | 5% |
| B23 | 6% |
| B24 | 50% |
| B25 | 121% |
| B26 | 5% |
| B29 | 20% |
| B31 | 4% |
| B32 | 25% |

target: T3, purified interference factor(s), Donor C; test: SPR, interference factor immobilized
T3 construct: also called interference in serum from Donor C

| Binder | % of binding of reference (=100%) |
| --- | --- |
| B2 | 16% |
| B3 | 20% |
| B4 | 13% |
| B5 | 33% |
| B6 | 87% |
| B7 | 9% |
| B8 | 84% |
| B9 | 98% |
| B10 | 13% |
| B11 | 100% |
| B12 | 42% |
| B13 | 96% |
| B14 | 100% |
| B15 | 11% |
| B16 | 61% |
| B17 | 39% |
| B18 | 84% |
| B19 | 49% |
| B20 | 56% |
| B21 | 89% |
| B22 | 17% |
| B23 | 86% |
| B24 | 83% |
| B25 | 64% |
| B26 | 58% |
| B32 | 7% |
